Source: US12366576B2, “Compositions, assays, and methods for direct modulation of fatty acid metabolism” (Dana-Farber Cancer Institute, Inc., priority 2016, dated 2025)
Bridge positions count the residues as written; N and C are the ends. Square brackets hold non-standard residues; d marks the D form. Ends that are not written are not given here. S5 = C=CCCC[C@](C)(N)C(=O)O

Experiments:
[1] = biological target: T1, MCL-1ΔNΔC (Homo sapiens, UniProt Q07820); assay: 19F NMR binding study with fluorinated SAHB; conditions: fluorinated SAHB 25 μM, MCL-1ΔNΔC 0-45 μM
T1 construct: The MCL-1ΔNΔC construct was grown and expressed in E. coli as previously described; made in house; host or cells: E. coli BL21(DE3)
T1 sequence (Q07820 172-320 limits assumed, stated change not applied): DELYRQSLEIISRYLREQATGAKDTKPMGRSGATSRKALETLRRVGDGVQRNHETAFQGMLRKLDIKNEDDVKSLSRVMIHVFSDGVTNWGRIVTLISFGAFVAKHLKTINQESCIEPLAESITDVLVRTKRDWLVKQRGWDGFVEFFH
Procedure: (§1) To measure the direct binding interaction, ^19F NMR binding studies were conducted using fluorinated analogs of MCL-1 SAHBD. […] Both SAHBs, however, bind MCL-1ΔNΔC, as illustrated by a chemical shift of the peptide NMR peak in both cases (FIG. 15). […] To perform these experiments, N-terminal Btn-PEG analogs of the peptides were immobilized onto streptavidin probes that were then placed into protein solutions at a variety of concentrations to measure ligand-target association.
MCL-1ΔNΔC. The MCL-1ΔNΔC construct was grown and expressed in E. coli as previously described (see, e.g., Stewart, Nat Chem Biol., 6(6):595-601 (2010)). Transformed BL21(DE3) E. coli were grown at 37° C. to an OD of 0.8, after which they were induced with 0.5 mM IPTG. […]
To determine binding of SAHBs to VLCAD, fluorinated SAHB (25 μM) and VLCAD (0-125 μM) were mixed together in VLCAD FPLC buffer including 10% D2O to a final volume of 500 μL. […] The extent to which VLCAD bound the peptide was determined by measuring the peak width at half height (ν1/2) of the peptide ^19F signal. […] MCL-1ΔNΔC binding to SAHBs causes a change in the ^19F chemical shift of the peptide resulting in two peptide signals (instead of peak broadening), so extent of binding was quantified by measuring the peak height of “unbound” peptide relative to the bound peptide signal.

[2] = biological target: T2, VLCAD (Homo sapiens, UniProt P49748); assay: Biolayer interferometry; assay type: binding; conditions: Biotin-PEG peptide immobilized on streptavidin sensors
T2 construct: 10x His (N); made in house; host or cells: E. coli BL21(DE3), pET19b
T2 sequence (P49748 40-655): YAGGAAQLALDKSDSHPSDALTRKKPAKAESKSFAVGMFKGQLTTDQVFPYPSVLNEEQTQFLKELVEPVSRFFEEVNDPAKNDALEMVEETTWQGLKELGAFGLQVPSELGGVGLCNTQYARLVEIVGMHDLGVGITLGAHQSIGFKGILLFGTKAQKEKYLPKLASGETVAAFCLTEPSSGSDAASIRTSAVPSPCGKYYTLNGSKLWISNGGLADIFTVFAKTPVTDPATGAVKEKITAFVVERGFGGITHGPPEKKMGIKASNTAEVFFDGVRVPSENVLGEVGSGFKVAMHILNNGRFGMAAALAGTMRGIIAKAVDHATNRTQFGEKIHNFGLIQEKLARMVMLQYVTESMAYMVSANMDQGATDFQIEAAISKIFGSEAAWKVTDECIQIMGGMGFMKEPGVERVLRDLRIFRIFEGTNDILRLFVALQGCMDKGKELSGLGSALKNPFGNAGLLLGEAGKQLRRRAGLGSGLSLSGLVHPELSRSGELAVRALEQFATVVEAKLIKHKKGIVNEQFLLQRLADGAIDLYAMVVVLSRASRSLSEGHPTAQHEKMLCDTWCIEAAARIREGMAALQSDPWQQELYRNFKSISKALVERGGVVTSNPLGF
Procedure: as §1
VLCAD. Mature human VLCAD lacking its cleavable leader sequence (aa 40-655) (NP_000009.1) was subcloned into the pET19b vector (Novagen) using NdeI and XhoI restriction sites. Correct insertion was confirmed by DNA sequencing. The 10× His-tagged VLCAD construct was expressed in BL21(DE3) E. coli, and once cells reached an OD of 0.8 after growing at 37° C., they were induced with 0.5 mM […] (IPTG) (Gold Biotechnology I2481C) at 37° C. for 4 hours. Bacterial pellets were resuspended in lysis buffer (500 mM NaCl, 50 mM HEPES, 5% glycerol, pH 7.5, complete protease inhibitor tablet) and lysed by microfluidization (M-110L; Microfluidics). […]
BLI binding measurements were performed using an Octet Red384 System (ForteBio). […] Binding parameters were calculated using the accompanying Octet Software version 9 (ForteBio).

[3] = test system: CreER^T2 MEFs; assay: MS-based acylcarnitine quantification in MEFs; assay type: cell-based, mouse; conditions: 10 μM

MCL-1 SAHBD: hydrocarbon-stapled peptide mimicking the MCL-1 BH3 domain (Stabilized Alpha-Helix of BCL-2 Domain), SEQ ID NO:19 (RKALETLRRVGDGV[S5]RNH[S5]TAF; staple 15-19)
19F NMR binding to MCL-1ΔNΔC (chemical shift of the peptide peak) [1]: binds directly | biolayer interferometry association with VLCAD [2]: engages VLCAD | levels of very long-chain acylcarnitines relative to vehicle-treated control ([3]; Mcl-1^F/F CreER^T2 MEFs not exposed to tamoxifen, 48 hours): elevated levels | effect on already elevated acylcarnitine levels ([3]; Mcl-1^F/F CreER^T2 MEFs subjected to tamoxifen (Mcl-1 deleted)): no effect
